Results reported in patent publication US20200123228A1.
Where no end group is shown, it is not given here.

Biological target: bovine collagen (Symatese), polymerized gel (bovine)
Assay: retention on polymerized bovine collagen gel, antibody loaded at 10 µg/mL, released antibody measured by ELISA

% of bound antibody released by plasmin digestion after buffer changes: 47.1%
B1: PlGF-2123-144-αPD-L1 (clone 10F.9G2) (antibody, part only; not given: anti-PD-L1 antibody, part only)
peptide: RRRPKGRGKRRREKQRPTDCHL
modifications: not fully specified (residue 20); also: antibody conjugate, average 6 peptides per antibody
